The MegaScale stability set (Tsuboyama et al. 2023)

B1: EHEE_rd2_1257 (parent)
chain: EEERTFTNEEEARKAKKEAEKRGLRVTVTKDGTTWRVRIG

Variants of: B1
Assay: folding stability dG (cDNA display proteolysis); higher = more stable
Conditions: PBS, room temperature

Variant	folding stability dG [kcal/mol]
EEERTTTNEEEARKAKKEAEKRGLRVTVTKDGTTWRVRIG [F6T]	-0.137
EEERTWTNEEEARKAKKEAEKRGLRVTVTKDGTTWRVRIG [F6W]	0.194
EEERTFTNEEEARKAKKEAEKRGLRVTVTKDGTTWRVSIG [R38S]	1.93
EEERTFTNEEEARKAKKEAEKRGLRVTVTKDGTTWRVAIG [R38A]	1.71
EEERTFTNEEEARKAKKEAEKRGLRVTVTKDGTTWRVDIG [R38D]	1
EEERTFTNEEEARKAKKEAEKRGLRVTVTKDGTTWRVQIG [R38Q]	1.74
EEERTFTNEEEARKAKKEAEKRGLRVTVTKDGTTWRVVIG [R38V]	2.45
EERRTFTNEEEARKAKKEAEKRGLRVTVTKDGTTWRVRIG [E3R]	0.931
EEDRTFTNEEEARKAKKEAEKRGLRVTVTKDGTTWRVRIG [E3D]	1.67
EEGRTFTNEEEARKAKKEAEKRGLRVTVTKDGTTWRVRIG [E3G]	1.28
EEERTFTNEEEARKAKKECEKRGLRVTVTKDGTTWRVRIG [A19C]	2.03
EEERTFTNEEEARKAKKESEKRGLRVTVTKDGTTWRVRIG [A19S]	0.779
EEERTFTNEEEARKAKKEHEKRGLRVTVTKDGTTWRVRIG [A19H]	1.06
EEERTFTNEEEARKAKKEAEKRGLRVTVTKDGQTWRVRIG [T33Q]	2.27
EEELTFTNEEEARKAKKEAEKRGLRVTVTKDGTTWRVRIG [R4L]	2.8
EEEFTFTNEEEARKAKKEAEKRGLRVTVTKDGTTWRVRIG [R4F]	2.97
EEEYTFTNEEEARKAKKEAEKRGLRVTVTKDGTTWRVRIG [R4Y]	2.93
EEERTFTNEEEARKAKKEAEIRGLRVTVTKDGTTWRVRIG [K21I]	1.93
EEERTFTNEEEARKAKKEAEERGLRVTVTKDGTTWRVRIG [K21E]	2.25
EEERTFTNEEEARKAKKEAEHRGLRVTVTKDGTTWRVRIG [K21H]	1.82
EEERTFTNEEEARKAKKEAEYRGLRVTVTKDGTTWRVRIG [K21Y]	1.82
EEERTFTNEEEARKAKKEAENRGLRVTVTKDGTTWRVRIG [K21N]	2.06
EEERTFTNEEEAEKAKKEAEKRGLRVTVTKDGTTWRVRIG [R13E]	2.22
EEERTFTNEEEAFKAKKEAEKRGLRVTVTKDGTTWRVRIG [R13F]	2.73
EEERTFTNEEEAWKAKKEAEKRGLRVTVTKDGTTWRVRIG [R13W]	2.73

Variant	folding stability dG [kcal/mol]
EEERTFTNEEEAHKAKKEAEKRGLRVTVTKDGTTWRVRIG [R13H]	2.19
EEERTFTNEEEAKKAKKEAEKRGLRVTVTKDGTTWRVRIG [R13K]	2.05
EEERTFTNEEEAVKAKKEAEKRGLRVTVTKDGTTWRVRIG [R13V]	2.26
EEERTFTNEEEARKAKKEAEKRGLRVTVTKDGTHWRVRIG [T34H]	2.12
EEERTFTNEEEARKAKKEAEKRGLRVTVTKDGTFWRVRIG [T34F]	2.53
EEERTFTNEEEARKAKKEAEKRGLRVTVTKDGTQWRVRIG [T34Q]	1.97
EEERTFTNEEEARKAKKEAEKRGLRVTVTKDGTAWRVRIG [T34A]	1.68
EEERTFTNEEEARKNKKEAEKRGLRVTVTKDGTTWRVRIG [A15N]	0.555
EEERTFTNEEEARKMKKEAEKRGLRVTVTKDGTTWRVRIG [A15M]	1.87
EEERTFTNEEEARKAKKEAEKRGLRVVVTKDGTTWRVRIG [T27V]	1.88
EPERTFTNEEEARKAKKEAEKRGLRVTVTKDGTTWRVRIG [E2P]	1.43
ENERTFTNEEEARKAKKEAEKRGLRVTVTKDGTTWRVRIG [E2N]	1.81
EEERTFTNEPEARKAKKEAEKRGLRVTVTKDGTTWRVRIG [E10P]	1.38
EEERTFTNEREARKAKKEAEKRGLRVTVTKDGTTWRVRIG [E10R]	2.23
EEERTFTNELEARKAKKEAEKRGLRVTVTKDGTTWRVRIG [E10L]	2.11
EEERTFTNEDEARKAKKEAEKRGLRVTVTKDGTTWRVRIG [E10D]	2.01
EEERTFTNEEEARKASKEAEKRGLRVTVTKDGTTWRVRIG [K16S]	1.99
EEERTFTNEEEARKAEKEAEKRGLRVTVTKDGTTWRVRIG [K16E]	2.31
EEERTFTNEEEARKAHKEAEKRGLRVTVTKDGTTWRVRIG [K16H]	1.53
EEERTFTNQEEARKAKKEAEKRGLRVTVTKDGTTWRVRIG [E9Q]	1.58
EEERTFTNLEEARKAKKEAEKRGLRVTVTKDGTTWRVRIG [E9L]	2.01
EEERTFTNREEARKAKKEAEKRGLRVTVTKDGTTWRVRIG [E9R]	1.77
EEERTFTNEEEARKAKKEAEKRGLRVTVTKDGTTWRMRIG [V37M]	1.61
EEERTFTNEEEARKAKKEAEKRGLRVTVTKDGTTWRLRIG [V37L]	2.17
EEERTFTNEEEARKAKKEAQKRGLRVTVTKDGTTWRVRIG [E20Q]	1.67

Variant	folding stability dG [kcal/mol]
EEERTFTNEEEARKAKKEAFKRGLRVTVTKDGTTWRVRIG [E20F]	1.02
EEERTFTNEEEARKAKKEAEKRGLNVTVTKDGTTWRVRIG [R25N]	1.62
EEERTFTNEEEARKAKKEAEKRGLVVTVTKDGTTWRVRIG [R25V]	1.93
EEERTFTNEEEARKAKKEAEKRGLQVTVTKDGTTWRVRIG [R25Q]	1.89
WEERTFTNEEEARKAKKEAEKRGLRVTVTKDGTTWRVRIG [E1W]	3.19
YEERTFTNEEEARKAKKEAEKRGLRVTVTKDGTTWRVRIG [E1Y]	3.06
REERTFTNEEEARKAKKEAEKRGLRVTVTKDGTTWRVRIG [E1R]	1.83
EEERTFFNEEEARKAKKEAEKRGLRVTVTKDGTTWRVRIG [T7F]	2
EEERTFQNEEEARKAKKEAEKRGLRVTVTKDGTTWRVRIG [T7Q]	1.83
EEERTFHNEEEARKAKKEAEKRGLRVTVTKDGTTWRVRIG [T7H]	1.86
EEERTFTNEEEARKAKKEAEKEGLRVTVTKDGTTWRVRIG [R22E]	1.23
EEERTFTNEEEARKAKKEAEKIGLRVTVTKDGTTWRVRIG [R22I]	1.59
EEERTFTNEEEARKAKKEAEKQGLRVTVTKDGTTWRVRIG [R22Q]	1.88
EEERTFTNEEEARKAKKEAEKDGLRVTVTKDGTTWRVRIG [R22D]	1.09
EEERTFTNEEEARKAKKEAEKAGLRVTVTKDGTTWRVRIG [R22A]	1.91
EEERTFTNEEEARKAKKEAEKPGLRVTVTKDGTTWRVRIG [R22P]	-0.245
EEERTFTNEEEARKAKKEAEKRGLRVTVTKDGTTWRVRIF [G40F]	3.04
EEERTFTNEEEARKAKKEAEKRGLRVTVTKDGTTWRVRIV [G40V]	2.73
EEERTFTNEEEARKAKKEAEKRGLRVTVTKDGTTWRVRIA [G40A]	2.19
EEERTFTNEEEARKAKKEAEKRGLRVTVTKDGTTWRVRIN [G40N]	2.07
EEERTFTNEEEWRKAKKEAEKRGLRVTVTKDGTTWRVRIG [A12W]	0.906
EEERTFTNEEEVRKAKKEAEKRGLRVTVTKDGTTWRVRIG [A12V]	1.51
EEERTFTNEEEARKAKKEAEKRGLRVTVTKDLTTWRVRIG [G32L]	0.595
EEERTFTNEEEARKAKKLAEKRGLRVTVTKDGTTWRVRIG [E18L]	1.64
EEERTFTNEEEARKAKKYAEKRGLRVTVTKDGTTWRVRIG [E18Y]	1.59

Variant	folding stability dG [kcal/mol]
EEERTFTNEEDARKAKKEAEKRGLRVTVTKDGTTWRVRIG [E11D]	2.28
EEERTFTNEEQARKAKKEAEKRGLRVTVTKDGTTWRVRIG [E11Q]	1.58
EEERTFTNEEAARKAKKEAEKRGLRVTVTKDGTTWRVRIG [E11A]	1.8
EEERTFTNEEIARKAKKEAEKRGLRVTVTKDGTTWRVRIG [E11I]	0.287
EEERTFTNEEHARKAKKEAEKRGLRVTVTKDGTTWRVRIG [E11H]	1.32
EEERTFTNEENARKAKKEAEKRGLRVTVTKDGTTWRVRIG [E11N]	1.18
EEERTFTNEEEARDAKKEAEKRGLRVTVTKDGTTWRVRIG [K14D]	1.86
EEERTFTNEEEARGAKKEAEKRGLRVTVTKDGTTWRVRIG [K14G]	1.49
EEERTFTNEEEARKAKKEAEKRGLRVTVTKDGTTLRVRIG [W35L]	0.579
EEERTFTNEEEARKAKKEAEKRGLRVTVTKDGTTERVRIG [W35E]	-0.181
EEERTFTNEEEARKAKKEAEKRGLRVTVTKDGTTFRVRIG [W35F]	1.32
EEERTFTNEEEARKAKKEAEKRGLRVTVTKDGTTTRVRIG [W35T]	0.358
EEERTFTNEEEARKAKKEAEKRGLRVTVTKDGTTARVRIG [W35A]	-0.238
EEERTFTNEEEARKAKKEAEKRGLRVTVTKDGTTWTVRIG [R36T]	2.15
EEERTFTNEEEARKAKKEAEKRGLRVTVTKDGTTWCVRIG [R36C]	1.91
EEERTFTNEEEARKAKKEAEKRGLRVTVTKDGTTWLVRIG [R36L]	2.15
EEERTFTNEEEARKAKKEAEKRGLRVTVTKDGTTWEVRIG [R36E]	0.524
EEERTFTNEEEARKAKKEAEKRGLRVTVRKDGTTWRVRIG [T29R]	1.51
EEERTFTNEEEARKAKKEAEKRGLRVTVYKDGTTWRVRIG [T29Y]	2.33
EEERTFTNEEEARKAKKEAEKRGLRVTVKKDGTTWRVRIG [T29K]	1.34
EEERTFTNEEEARKAKKEAEKRGLRVTVAKDGTTWRVRIG [T29A]	1.29
EEERTFTNEEEARKAKKEAEKRGLRVTVLKDGTTWRVRIG [T29L]	1.8
EEERTFTNEEEARKAKKEAEKRKLRVTVTKDGTTWRVRIG [G23K]	0.384
EEERTFTNEEEARKAKKEAEKRDLRVTVTKDGTTWRVRIG [G23D]	-0.065
EEERTFTNEEEARKAKKEAEKRCLRVTVTKDGTTWRVRIG [G23C]	1.58

Variant	folding stability dG [kcal/mol]
EEERTFTNEEEARKAKKEAEKRGLRVTVTSDGTTWRVRIG [K30S]	2.14
EEERTFTNEEEARKAKKEAEKRGLRVTVTLDGTTWRVRIG [K30L]	1.99
EEERTFTNEEEARKAKKEAEKRGLRVTVTYDGTTWRVRIG [K30Y]	3.22
EEERTFTNEEEARKAKKEAEKRGLRVTVTKDGTTWRVRSG [I39S]	0.837
EEERTFTNEEEARKAKKEAEKRGLRVTVTKDGTTWRVRQG [I39Q]	0.241
EEERIFTNEEEARKAKKEAEKRGLRVTVTKDGTTWRVRIG [T5I]	2.56
EEERTFTNEEEARKAKKEAEKRGLRVTATKDGTTWRVRIG [V28A]	-0.179
EEERTFTNEEEARKAKKEAEKRGLRVTYTKDGTTWRVRIG [V28Y]	0.822
EEERTFTNEEEARKAKKEAEKRGLRVTQTKDGTTWRVRIG [V28Q]	-0.917
EEERTFTNEEEARKAKYEAEKRGLRVTVTKDGTTWRVRIG [K17Y]	2.44
EEERTFTNEEEARKAKQEAEKRGLRVTVTKDGTTWRVRIG [K17Q]	2.36
EEERTFTNEEEARKAKTEAEKRGLRVTVTKDGTTWRVRIG [K17T]	2.11
EEERTFTNEEEARKAKVEAEKRGLRVTVTKDGTTWRVRIG [K17V]	2.27
EEERTFTNEEEARKAKEEAEKRGLRVTVTKDGTTWRVRIG [K17E]	2.7
EEERTFTNEEEARKAKGEAEKRGLRVTVTKDGTTWRVRIG [K17G]	1.78
EEERTFTNEEEARKAKKEAEKRGLRSTVTKDGTTWRVRIG [V26S]	0.809
EEERTFTNEEEARKAKKEAEKRGLRMTVTKDGTTWRVRIG [V26M]	0.445
EEERTFTNEEEARKAKKEAEKRGLRLTVTKDGTTWRVRIG [V26L]	0.171
EEERTFTIEEEARKAKKEAEKRGLRVTVTKDGTTWRVRIG [N8I]	1.39
EEERTFTNEEEARKAKKEAEKRGGRVTVTKDGTTWRVRIG [L24G]	0.057
EEERTFTNEEEARKAKKEAEKRGQRVTVTKDGTTWRVRIG [L24Q]	1.41
EEERTFTNEEEARKAKKEAEKRGDRVTVTKDGTTWRVRIG [L24D]	0.447
EEERTFTNEEEARKAKKEAEKRGHRVTVTKDGTTWRVRIG [L24H]	1.46
EEERTFTNEEEARKAKKEAEKRGLRVTVTKAGTTWRVRIG [D31A]	1.41
EEERTFTNEEEARKAKKEAEKRGLRVTVTKRGTTWRVRIG [D31R]	1.32
